Experimental data from patent US20160102316A1, “STRESS TOLERANT PLANTS” (CONSEJO SUPERIOR DE INVESTIGACIONES CIENTIFICAS(CSIC), priority 2013, published 2016).

T1: DET1 (Arabidopsis, UniProt P48732 1-543)
T1 construct: Endogenous protein in the TAP; also called DEETIOLATED 1
T1 sequence (looked up): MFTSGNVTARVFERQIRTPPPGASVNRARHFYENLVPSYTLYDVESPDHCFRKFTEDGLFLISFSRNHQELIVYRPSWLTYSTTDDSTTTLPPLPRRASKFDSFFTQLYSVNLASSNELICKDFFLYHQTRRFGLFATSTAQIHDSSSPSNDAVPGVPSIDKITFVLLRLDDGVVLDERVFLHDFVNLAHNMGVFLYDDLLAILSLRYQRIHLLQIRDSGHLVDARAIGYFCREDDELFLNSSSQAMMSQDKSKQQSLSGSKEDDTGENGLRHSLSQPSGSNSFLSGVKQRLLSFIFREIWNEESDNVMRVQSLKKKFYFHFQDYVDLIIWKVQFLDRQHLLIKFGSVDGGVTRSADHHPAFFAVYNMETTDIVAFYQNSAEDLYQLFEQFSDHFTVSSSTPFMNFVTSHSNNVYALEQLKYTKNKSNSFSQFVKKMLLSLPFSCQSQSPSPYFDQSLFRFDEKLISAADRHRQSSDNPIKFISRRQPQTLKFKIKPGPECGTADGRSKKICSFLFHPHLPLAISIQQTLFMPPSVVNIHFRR

T2: full length PYL8 (Arabidopsis, UniProt Q9FGM1 1-188)
T2 construct: Gal4-domain fusion in the yeast two-hybrid assays; also called ABA receptor PYL8
T2 sequence (looked up): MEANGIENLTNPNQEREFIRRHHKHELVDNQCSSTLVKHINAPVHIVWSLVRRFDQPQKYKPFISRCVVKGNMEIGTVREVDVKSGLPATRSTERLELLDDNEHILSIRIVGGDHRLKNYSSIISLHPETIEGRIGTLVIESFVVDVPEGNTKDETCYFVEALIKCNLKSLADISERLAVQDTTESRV

T3: YFPN:PYL8 (Arabidopsis, UniProt Q9FGM1 1-188)
T3 construct: BiFC construct expressed transiently in N. benthamiana leaves; also called PYL8 fusion with the N-portion of YFP; not shown: N-portion of the yellow fluorescent protein (YFP)
T3 sequence (looked up): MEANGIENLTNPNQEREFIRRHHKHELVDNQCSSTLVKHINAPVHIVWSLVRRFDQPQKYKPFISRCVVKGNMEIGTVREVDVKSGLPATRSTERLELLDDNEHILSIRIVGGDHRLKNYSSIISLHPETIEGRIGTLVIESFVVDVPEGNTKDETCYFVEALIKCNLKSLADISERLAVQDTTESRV

B1: DDA1 fused to the binding domain of GAL4 (pGBKT7-DDA1) (other)
chain: MKLLSSIEQACDICRLKKLKCSKEKPKCAKCLKNNWECRYSPKTKRSPLTRAHLTEVESRLERLEQLFLLIFPREDLDMILKMDSLQDIKALLTGLFVQDNVNKDAVTDRLASVETDMPLTLRQHRISATSSSEESSNKGQRQLTVSMASILGDLPSFDPHNFSQHRPSDPSNPSKMVPTTYRPTHNRTLPPPDQVITTEVKNILIRSFYQRAEEKLRPKRPATDHLAAEHVNKHFRAASSSSSTQGL
notes: Other vector-encoded residues of pGBKT7 are not described; also called AtDDA1; DET1-, DDB1-Associated 1

How the values were obtained:
[1] = molecular target: B1; test: yeast two-hybrid
Description: (§1) (A) Y187 yeast cells transformed with pGBKT7-DDA1 were used to screen a cDNA library prepared from Arabidopsis seedlings in the pGADT7 vector and transformed into AH109 cells. Positive clones included truncated versions of ABA receptors PYL4 and PYL9. Yeast clones were grown in selective media containing different concentrations of 3AT (ranging 0.5 to 5 […]). Empty pGADT7 vector was used as negative control. (B-C) DDA1 interaction with full length PYL8 (B), PYL4, PYL5, PYL6 or PYL9 (C) was assessed using yeast two hybrid experiments as in (A). Physical association between PYL8 and other components of the CDD complex (DDB1a, DDB1b, DET1 and COP10) was also tested (B).
(§2) The molecular basis of DDA1 activity is unknown. To get insights into its mechanism of action, we searched for proteins that interact with DDA1. With this aim, we conducted a yeast two-hybrid screen using DDA1 as bait. Thus, the full-length coding sequence of DDA1 fused to the binding domain of GAL4 was used to screen a cDNA library prepared from Arabidopsis seedlings. From over 15 million clones screened, 200 were identified as potential DDA1 interactors. Among them, 20 were subsequently confirmed by retransformation into yeast. […] We aimed to determine whether DDA1 interacts with full length PYL4 and PYL9 and with other Arabidopsis PYR/PYL/RCAR family members using yeast two hybrid assays.
(§3) The full length DDA1 cDNA was cloned into the pGBKT7 (Gal4 DNA binding domain, BD; Clontech). […] To confirm protein interactions, plasmids were co-transformed into Saccharomyces cerevisiae AH109 cells, following standard heat-shock protocols (Chini et al., 2007).

DET1 = molecular target: T1, DET1; test: yeast two-hybrid
Description: as §1, §2, §3

full length PYL8 = molecular target: T2, full length PYL8; test: yeast two-hybrid (FIG. 4B)
Description: as §1
The full length DDA1 cDNA was cloned into the pGBKT7 (Gal4 DNA binding domain, BD; Clontech). […] To confirm protein interactions, plasmids were co-transformed into Saccharomyces cerevisiae AH109 cells, following standard heat-shock protocols (Chini et al., 2007). Successfully transformed colonies were identified on yeast synthetic drop-out lacking Leu and Trp; these colonies were resuspended in water and transferred to selective media lacking Ade, His, Leu and Trp. Plates without His were supplemented with different concentrations of 3-amino 1,2,4-triazole (3AT; ranging 0.5-10 mM). Yeast cells were incubated at 30° C. during 6 days. Empty vectors were co-transformed as negative controls. To test the DDA1 interaction with specific DDB1a domains, DDB1a truncated versions were generated and cloned into the pGADT7 vector as follows: BPA (aa 16-350), BPB (aa 387-704), BPA+BPB (aa 16-704), BPC (aa 704-1002) and BPB+BPC (aa 350-1002). Full length DDB1a was used as a positive control.

YFPN:PYL8 = molecular target: T3, YFPN:PYL8; test: BiFC in N. benthamiana epidermal cells
Description: To confirm that DDA1 and PYL8 interact in planta, we performed bimolecular fluorescence complementation (BiFC) assays. N. benthamiana leaves were coinfiltrated with Agrobacterium tumefaciens cells to express DDA1 and PYL8 fusions with the Nor C-portions of the yellow fluorescent protein (YFP). The infiltrated leaves were analyzed under the confocal fluorescence microscope 3 d after infiltration.
YFPN:PYL8/DDA1:YFPC were co-infiltrated into the abaxial surface of 3-week-old N. benthamiana plants as described (Voinnet et al., 2003). The p19 protein was used to suppress gene silencing. The empty vectors were used as negative controls. Fluorescence was visualized in epidermal cells of leaves after 3 d of infiltration using a Leica sp5 confocal microscope. Nuclei were visualized after submerging the leaves in a DAPI solution (1 μg mL-1 DAPI in 100 mM phosphate buffer, 0.5% Triton X-100).

Row | Binder | binding result [1] | other results
1 | PYL5 (receptor, Arabidopsis, UniProt Q9FLB1 1-203, looked up) MRSPVQLQHGSDATNGFHTLQPHDQTDGPIKRVCLTRGMHVPEHVAMHHTHDVGPDQCCSSVVQMIHAPPESVWALVRRFDNPKVYKNFIRQCRIVQGDGLHVGDLREVMVVSGLPAVSSTERLEILDEERHVISFSVVGGDHRLKNYRSVTTLHASDDEGTVVVESYIVDVPPGNTEEETLSFVDTIVRCNLQSLARSTNRQ | no binding | 
2 | B1 |  | binding result (DET1): no binding
3 | COP10 (other, Arabidopsis, UniProt Q9LJD7 1-182, looked up, Endogenous protein in the TAP; also called CONSTITUTIVE PHOTOMORPHOGENIC10) MMTPGGSGRLRPLPTAMYAGYSGTASSWVAKTSVSASGKRIQREMAELNIDPPPDCSAGPKGDNLYHWIATIIGPSGTPYEGGIFFLDIIFPSDYPFKPPKLVFKTRIYHCNVDTAGDLSVNILRDSWSPALTITKVLQAIRSIFLKPEPYSPALPVIARLYLTDREKHDEVAKEWTLRFAK | no binding | binding result (full length PYL8): no binding
4 | DDA1:YFPC (other, BiFC construct expressed transiently in N. benthamiana leaves; also called DDA1 fusion with the C-portion of YFP; not shown: C-portion of the yellow fluorescent protein (YFP)) MASILGDLPSFDPHNFSQHRPSDPSNPSKMVPTTYRPTHNRTLPPPDQVITTEVKNILIRSFYQRAEEKLRPKRPATDHLAAEHVNKHFRAASSSSSTQGL |  | binding result (YFPN:PYL8): binds
5 | PYL6 (receptor, Arabidopsis, UniProt Q8S8E3 1-215, looked up) MPTSIQFQRSSTAAEAANATVRNYPHHHQKQVQKVSLTRGMADVPEHVELSHTHVVGPSQCFSVVVQDVEAPVSTVWSILSRFEHPQAYKHFVKSCHVVIGDGREVGSVREVRVVSGLPAAFSLERLEIMDDDRHVISFSVVGGDHRLMNYKSVTTVHESEEDSDGKKRTRVVESYVVDVPAGNDKEETCSFADTIVRCNLQSLAKLAENTSKFS | no binding | 
